# From patent publication US20240091382A1, “MINIMAL BILE ACID INDUCIBLE PROMOTERS FOR GENE THERAPY” (priority 2020, published 2024)
# System: Huh-7 cells
# Test: Luciferase expression from BSEP-derived promoter plasmids in Huh-7 cells (FXR co-transfection, CDCA induction)
# Type: cell-based, human
# Details: Huh-7, pCMV-hFXRα2, 30 μM CDCA
# Experimental: FIG. 2. […] In all cases, cells were also transfected with a Renilla expressing plasmid (pRL-CMV). Luciferase and Renilla expression were measured with a luminometer. All samples were tested in triplicates and data are presented as mean±SEM of relative (rel.) units (Luciferase units sec^−1/Renilla units sec^−1). The fold induction of each condition relative to cells transfected only with the luciferase plasmid (Luc plasmid) is indicated on top of each column. The statistical comparison between these two conditions was performed by using an unpaired […] T test. *, p<0.05; **, p<0.01; ***, p<0.001. imPr and ihPr, pAAV-imPr-LucPEST and pAAV-ihPr-LucPEST, respectively; full length mPr, pAAV-mBSEPpr-LucPEST; full length hPr, p-2563/+4-Luc; A1AT, pAAV-A1AT-LucPEST.
# FIG. 18. […] In all cases, cells were also transfected with the same amount of Renilla expressing plasmid (pRL-CMV) to determine the transfection efficiency. Luciferase and Renilla expression were measured with a luminometer. All samples were tested in triplicates and data are presented as mean±SEM of relative (rel.) units (Luciferase units sec^−1/Renilla units sec^−1). The fold induction of each condition relative to cells transfected only with the luciferase plasmid (Luc plasmid) is indicated on top of each column. The statistical comparison between these two conditions was performed by using an unpaired T test. *, p<0.05; **, p<0.01; ***, p<0.001; ****, p<0.0001.
# The inventors first tested whether luciferase expression could be induced by bile salts in hepatic cells from human (Huh-7 and HepG2) and mouse origin (Hepa1-6). For this purpose, they transfected confluent monolayers of these cells in 12-well plates with 0.5 μg pAAV-miPr-LucPEST or pAAV-hiPr-LucPEST plasmids, or with the same amount of control plasmids (pAAV-mBSEPpr-LucPEST, p-2563/+4-Luc and pAAV-A1AT-LucPEST), together with 0.5 μg of plasmids expressing either human FXRα1 (pcDNA3.1-hFXRα1, ordered from GenScript) or FXRα2 (pCMV-hFXRα2, ref NR1H4 cDNA Resource Center, Bloomsburg, PA), two isoforms of FXR that can exert different transcriptional regulation). […] Furthermore, to normalize luciferase expression, and correct for differences in transfection efficiencies, the inventors also co-transfected cells with 0.2 μg of a plasmid expressing Renilla-luciferase from a constitutive promoter (pRL-CMV, Promega). All transfections were performed using lipofectamine 2000 (Thermo Fisher). […] After induction, cells were collected and luciferase and Renilla expression were measured in cell extracts using an Orion L Microplate Luminometer.
# The inventors tested luciferase expression of plasmids containing the variants of imPr promoter in Huh-7 cells as described above. Briefly, the inventors transfected confluent cell monolayers in 12-well plates with 0.5 μg of each of the corresponding plasmids, using as control pAAV-miPr-LucPEST, together with 0.5 μg of pCMV-hFXRa2 using lipofectamine 2000. To normalize luciferase expression, the inventors co-transfected cells with 0.2 μg of a plasmid expressing Renilla-luciferase from a constitutive promoter (pRL-CMV). […] After induction, cells were collected and luciferase and Renilla expression were measured in cell extracts as described.
Molecule,level of luciferase expression compared to plasmid containing imPr promoter,luciferase expression compared to imPr+1xIR
"imPr+5xIR: imPr variant with five extra repeats of the murine IR-1 element (SEQ ID NO: 19) (nucleic acid, Synthetic imPR+5xIR) DNA: TTAGGCCATTGACCTATTAGGCCATTGACCTATTAGGCCATTGACCTATTAGGCCATTGACCTATTAGGCCATTGACCTAGGTTCCTGCTTTGAGTATGTTCGACCTTTCCTCTCATGTCACTGAACTGTGCTAGATCTGGACTTTAGGCCATTGACCTATAAGCAAATAGATAGTGTTCTTAAAAAAGCCTGATTTCTGTTCAATGCTTTATTACCATGAAAACTGAACTTGGAAAGGGGTGTACAACCCTGACTTTCCACAGTGGCGTCTCTCGCTTCTCCTGGCTCCCTCAAATTCACA",not observed,
"imPr+3xIR: imPr variant with three extra repeats of the murine IR-1 element (SEQ ID NO: 7) (nucleic acid, Synthetic imPR+3xIR) DNA: TTAGGCCATTGACCTATTAGGCCATTGACCTATTAGGCCATTGACCTAGGTTCCTGCTTTGAGTATGTTCGACCTTTCCTCTCATGTCACTGAACTGTGCTAGATCTGGACTTTAGGCCATTGACCTATAAGCAAATAGATAGTGTTCTTAAAAAAGCCTGATTTCTGTTCAATGCTTTATTACCATGAAAACTGAACTTGGAAAGGGGTGTACAACCCTGACTTTCCACAGTGGCGTCTCTCGCTTCTCCTGGCTCCCTCAAATTCACA",significantly higher level of luciferase expression,significantly higher luciferase expression than imPr+1xIR
"imPr+3xIR-ER2: imPr variant with three repetitions of the IR-1-ER2 element (SEQ ID NO: 20) (nucleic acid, Synthetic imPr+3xIR-ER2) DNA: TGGACTTTAGGCCATTGACCTATGGACTTTAGGCCATTGACCTATGGACTTTAGGCCATTGACCTAGGTTCCTGCTTTGAGTATGTTCGACCTTTCCTCTCATGTCACTGAACTGTGCTAGATCTGGACTTTAGGCCATTGACCTATAAGCAAATAGATAGTGTTCTTAAAAAAGCCTGATTTCTGTTCAATGCTTTATTACCATGAAAACTGAACTTGGAAAGGGGTGTACAACCCTGACTTTCCACAGTGGCGTCTCTCGCTTCTCCTGGCTCCCTCAAATTCACA",not observed,
"imPr+LRH-1: slightly longer imPr variant including the upstream LRH-1 element (SEQ ID NO: 21) (nucleic acid, Synthetic imPr+ LRH-1) DNA: TTTCTAAAGCTTGTTGATACCCTCAGAAGGTCCCCACGCACTCTGGGTTTGGGTTCCTGCTTTGAGTATGTTCGACCTTTCCTCTCATGTCACTGAACTGTGCTAGATCTGGACTTTAGGCCATTGACCTATAAGCAAATAGATAGTGTTCTTAAAAAAGCCTGATTTCTGTTCAATGCTTTATTACCATGAAAACTGAACTTGGAAAGGGGTGTACAACCCTGACTTTCCACAGTGGCGTCTCTCGCTTCTCCTGGCTCCCTCAAATTCACA",not observed,
"imPr+1xIR: imPr variant with one extra repeat of the murine IR-1 element at the 5′end (SEQ ID NO: 6) (nucleic acid, Synthetic imPR+1xIR) DNA: TTAGGCCATTGACCTAGGTTCCTGCTTTGAGTATGTTCGACCTTTCCTCTCATGTCACTGAACTGTGCTAGATCTGGACTTTAGGCCATTGACCTATAAGCAAATAGATAGTGTTCTTAAAAAAGCCTGATTTCTGTTCAATGCTTTATTACCATGAAAACTGAACTTGGAAAGGGGTGTACAACCCTGACTTTCCACAGTGGCGTCTCTCGCTTCTCCTGGCTCCCTCAAATTCACA",significantly higher level of luciferase expression,
